In patent US20200399369A1 (Sanofi, published 2020):

T1: Human CD3 (human)
T1 chain: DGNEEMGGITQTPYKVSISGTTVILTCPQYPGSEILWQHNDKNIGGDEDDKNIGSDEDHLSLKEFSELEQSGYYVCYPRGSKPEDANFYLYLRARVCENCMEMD

B1: CD38VH1/CD28sup x CD3mid_ENLQ DKTHT IgG4 FALA (other)
light 1: DIVMTQTPLSLSVTPGQPASISCKSSQSLVHENLQTYLSWYLQKPGQSPQSLIYKVSNRFSGVPDRFSGSGSGTDFTLKISRVEAEDVGVYYCGQGTQYPFTFGSGTKVEIKDKTHTDIQMTQSPSSLSASVGDRVTITCQASQNIYVWLNWYQQKPGKAPKLLIYKASNLHTGVPSRFSGSGSGTDFTLTISSLQPEDIATYYCQQGQTYPYTFGQGTKLEIKDKTHTRTVAAPSVFIFPPSDEQLKSGTASVVCLLNNFYPREAKVQWKVDNALQSGNSQESVTEQDSKDSTYSLSSTLTLSKADYEKHKVYACEVTHQGLSSPVTKSFNRGEC
heavy 1: QVQLVQSGAEVVKPGASVKVSCKASGYTFTSYYIHWVRQAPGQGLEWIGSIYPGNVNTNYAQKFQGRATLTVDTSISTAYMELSRLRSDDTAVYYCTRSHYGLDWNFDVWGKGTTVTVSSDKTHTQVQLVESGGGVVQPGRSLRLSCAASGFTFTKAWMHWVRQAPGKQLEWVAQIKDKSNSYATYYADSVKGRFTISRDDSKNTLYLQMNSLRAEDTAVYYCRGVYYALSPFDYWGQGTLVTVSSDKTHTASTKGPSVFPLAPCSRSTSESTAALGCLVKDYFPEPVTVSWNSGALTSGVHTFPAVLQSSGLYSLSSVVTVPSSSLGTKTYTCNVDHKPSNTKVDKRVESKYGPPCPPCPAPEAAGGPSVFLFPPKPKDTLMISRTPEVTCVVVDVSQEDPEVQFNWYVDGVEVHNAKTKPREEQFNSTYRVVSVLTVLHQDWLNGKEYKCKVSNKGLPSSIEKTISKAKGQPREPQVCTLPPSQEEMTKNQVSLSCAVKGFYPSDIAVEWESNGQPENNYKTTPPVLDSDGSFFLVSKLTVDKSRWQEGNVFSCSVMHEALHNHYTQKSLSLSLG
heavy 2: QVQLVQSGAEVVKPGASVKVSCKASGYTFTSYAMHWVKEAPGQRLEWIGYIYPGQGGTNYNQKFQGRATLTADTSASTAYMELSSLRSEDTAVYFCARTGGLRRAYFTYWGQGTLVTVSSASTKGPSVFPLAPCSRSTSESTAALGCLVKDYFPEPVTVSWNSGALTSGVHTFPAVLQSSGLYSLSSVVTVPSSSLGTKTYTCNVDHKPSNTKVDKRVESKYGPPCPPCPAPEAAGGPSVFLFPPKPKDTLMISRTPEVTCVVVDVSQEDPEVQFNWYVDGVEVHNAKTKPREEQFNSTYRVVSVLTVLHQDWLNGKEYKCKVSNKGLPSSIEKTISKAKGQPREPQVYTLPPCQEEMTKNQVSLWCLVKGFYPSDIAVEWESNGQPENNYKTTPPVLDSDGSFFLYSKLTVDKSRWQEGNVFSCSVMHEALHNHYTQKSLSLSLG
light 2: DIVLTQSPATLSLSPGERATISCRASQSVSSYGQGFMHWYQQKPGQPPRLLIYGASSRATGIPARFSGSGSGTDFTLTISPLEPEDFAVYYCQQNKEDPWTFGGGTKLEIKRTVAAPSVFIFPPSDEQLKSGTASVVCLLNNFYPREAKVQWKVDNALQSGNSQESVTEQDSKDSTYSLSSTLTLSKADYEKHKVYACEVTHQGLSSPVTKSFNRGEC
notes: Trispecific antibody; also called BP # 1
B2: CD38hyb6284/CD28sup x CD3mid_ENLQ DKTHT IgG4 FALA (other)
light 1: B1 light 1
heavy 1: B1 heavy 1
heavy 2: QVQLLQSGAELVRPGVSVKISCTGSGYSFTNYAVHWVKQSHVKSLEWIGVISPYYGDTTYNQKFTGKATMTVDKSSSTAYMELARLTSEDSAIYFCARRFEGFYYSMDYWGQGTSVTVSSASTKGPSVFPLAPCSRSTSESTAALGCLVKDYFPEPVTVSWNSGALTSGVHTFPAVLQSSGLYSLSSVVTVPSSSLGTKTYTCNVDHKPSNTKVDKRVESKYGPPCPPCPAPEAAGGPSVFLFPPKPKDTLMISRTPEVTCVVVDVSQEDPEVQFNWYVDGVEVHNAKTKPREEQFNSTYRVVSVLTVLHQDWLNGKEYKCKVSNKGLPSSIEKTISKAKGQPREPQVYTLPPCQEEMTKNQVSLWCLVKGFYPSDIAVEWESNGQPENNYKTTPPVLDSDGSFFLYSKLTVDKSRWQEGNVFSCSVMHEALHNHYTQKSLSLSLG
light 2: DVVMIQTPLSLPVSLGDQASISCRPSQSLVHSNGNTYLNWYLQRPGQSPKLLIYKVSKRFSGVPDRFSGSGSGTDFTLKISRVEAEDLGVYLCSQSTHVPLTFGSGTQLEIKRTVAAPSVFIFPPSDEQLKSGTASVVCLLNNFYPREAKVQWKVDNALQSGNSQESVTEQDSKDSTYSLSSTLTLSKADYEKHKVYACEVTHQGLSSPVTKSFNRGEC
notes: Trispecific antibody; also called BP # 7
B3: CD38hhy1195/CD28sup x CD3mid_ENLQ DKTHT IgG4 FALA (other)
light 1: B1 light 1
heavy 1: B1 heavy 1
heavy 2: QVQLVESGGGVVQPGRSLRLSCAASGFTFSSYGMYWVRQAPGKGLEWVAVIWYDGSNKYYADSVKGRFTISRDNSKNTLYLQMNSLRAEDTAVYHCARDPGLRYFDGGMDVWGQGTTVTVSSASTKGPSVFPLAPCSRSTSESTAALGCLVKDYFPEPVTVSWNSGALTSGVHTFPAVLQSSGLYSLSSVVTVPSSSLGTKTYTCNVDHKPSNTKVDKRVESKYGPPCPPCPAPEAAGGPSVFLFPPKPKDTLMISRTPEVTCVVVDVSQEDPEVQFNWYVDGVEVHNAKTKPREEQFNSTYRVVSVLTVLHQDWLNGKEYKCKVSNKGLPSSIEKTISKAKGQPREPQVYTLPPCQEEMTKNQVSLWCLVKGFYPSDIAVEWESNGQPENNYKTTPPVLDSDGSFFLYSKLTVDKSRWQEGNVFSCSVMHEALHNHYTQKSLSLSLG
light 2: DIQLTQSPSFLSASVGDRVTITCRASQGISSYLAWYQQKPGKAPKLLIFAASTLHSGVPSRFSGSGSGTEFTLTISSLQPEDFATYYCQQLNSFPYTFGQGTKLEIKRTVAAPSVFIFPPSDEQLKSGTASVVCLLNNFYPREAKVQWKVDNALQSGNSQESVTEQDSKDSTYSLSSTLTLSKADYEKHKVYACEVTHQGLSSPVTKSFNRGEC
notes: Trispecific antibody; also called BP # 8

target: T2, human CD38 on tumor cell lines NCI-H929 (CD38+/CD28+) and OCI-LY19 (CD38+/CD28-) (human, UniProt P28907 1-300); assay: cell-based or functional assay

Row | Binder | EC50 of in vitro killing of OCI-LY19 (CD38+/CD28-) cells, With Dara | EC50 of in vitro killing of OCI-LY19 (CD38+/CD28-) cells, With human IgG1
1 | B1 | 0.136 nM | 0.00566 nM
2 | B2 | 0.081 nM | 0.0421 nM
3 | B3 | 0.715 nM | 0.296 nM

target: T3, Human CD38-His (human, UniProt P28907 43-300, limits assumed); assay: SPR (BIACORE 3000), capture format, 1:1 Langmuir model
T3 construct: Bought antigen; also called human CD38 (SPR antigen); not shown: His tag

Row | Binder | Kd | koff | kon
4 | B1 | 2.85 nM | 0.00158 s⁻¹ | 555000 M⁻¹ s⁻¹
5 | B2 | 0.652 nM | 0.000512 s⁻¹ | 785000 M⁻¹ s⁻¹
6 | B3 | 14.2 nM | 0.018 s⁻¹ | 1.27e+06 M⁻¹ s⁻¹

target: T4, Human CD28 (human, UniProt P10747 19-152, limits assumed); assay: ELISA, antigen-coated plate
T4 construct: also called hCD28
Protocol: (§1) Binding affinities to each target antigen by the CD38/CD28×CD3 T cell engagers were measured by ELISA. Briefly, each antigen was used to coat the 96-well Immuno Plate (Thermo Fisher Scientific) overnight at 4° C. using 200 ng/well in PBS (pH7.4) of each antigen. The coated plate was blocked using 5% skim milk+2% BSA in PBS for one hour at RT, followed by washing with PBS+0.25% Tween 20 three times (Aqua Max 400, Molecular Devices). Serial dilution of antibodies (trispecific and control Abs) were prepared and added onto the ELISA plates (100 μl/well in duplicate), incubated at room temperature (RT) for one hour, followed by washing 5 times with PBS+0.25% Tween 20. […] The reaction was terminated by adding 50 μl 1M H₂SO₄, and OD450 was measured using SpectraMax M5 (Molecular Devices) and analyzed using SoftMax Pro6.3 software (Molecular Devices). The final data was transferred to GraphPad Prism software (GraphPad Software, CA, USA), and plotted. EC50 was calculated using the same software.
(§2) The binding affinities of selected CD38/CD28sup×CD3mid_ENLQ DKTHT IgG4 FALA trispecific antibodies with alternative anti-CD38 binding domains for human CD3, human CD28, human CD38 and cynomolgus monkey CD38 were then determined by ELISA as described above.

Row | Binder | EC50
7 | B1 | 0.725 nM
8 | B2 | 0.711 nM
9 | B3 | 0.697 nM

target: T5, human CD38 (human, UniProt P28907 43-300, limits assumed); assay: ELISA, antigen-coated plate
T5 construct: also called hCD38; huCD38
Protocol: as §1, §2

Row | Binder | EC50
10 | B1 | 7.24 nM
11 | B2 | 0.253 nM
12 | B3 | 103 nM

Target: T1, Human CD3
Assay: ELISA, antigen-coated plate
Protocol: as §1, §2

Row | Binder | EC50
13 | B1 | 6.74 nM
14 | B2 | 8.22 nM
15 | B3 | 7.63 nM

target: T6, cynomolgus monkey CD38 (cynomolgus monkey, UniProt Q5VAN0 44-301, limits assumed); assay: ELISA, antigen-coated plate
T6 construct: also called Cyno CD38; cynoCD38
Protocol: as §1, §2

Row | Binder | EC50
16 | B1 | 2.13 nM
17 | B2 | 0.29 nM
18 | B3 | 37.7 nM

target: T2, human CD38 on tumor cell lines NCI-H929 …; assay: cell-based or functional assay; remark: another data set of the same source

Row | Binder | EC50 of in vitro killing of NCI-H929 (CD38+/CD28+) cells, With Dara | EC50 of in vitro killing of NCI-H929 (CD38+/CD28+) cells, With human IgG1
19 | B1 | 0.0298 nM | 0.00106 nM
20 | B2 | 0.0336 nM | 0.00437 nM
21 | B3 | 0.0893 nM | 0.017 nM
